Key:
[1] = tested on: HT-1080/neo/HPRT editing lines; test: neo gene editing (G418 selection) after shRNA inhibition of selected replication fork proteins; type: cell-based, human; settings: shRNA induced 24 hours with doxycycline (1 μg/ml); AAV-HSN MOI 2×10^4
Method: (§1) To determine the effect of shRNA specific for selected replication fork proteins on gene editing, experiments were performed using the HT-1080/neo/HPRT editing lines. Each gene indicated in Table 8 below was inhibited with a shRNA (sequences provided in Table 7 below) expressed from a lentivirus vector.
(§2) HPRT and neo gene editing frequencies were measured by G418 or HAT selection and normalized to a cell that was not treated with a shRNA.
(§3) Cells were first transduced with a lentivirus expressing a shRNA specific for the targeted genes. 2×10^4 HT-1080 cells transduced with the specific shRNAs were then plated in 6-well plates on day 1, and the expression of the shRNA was induced for 24 hours with doxycycline (1 μg/ml). On day 2, cells were transduced with AAV-HSN or AAV-HPe3 at a MOI of 2×10^4. On day 4, the cells were treated with trypsin and 0.1% of the cells were replated without selection in 6-well plates to determine the number of colony forming units. The remainder of the cells were replated in 6-well plates for further analysis of gene editing frequency.
(§4) On day 5, neo gene correction experiments were performed by the addition of G418 (700 ug/ml) to the experimental plates. On day 16, plates were washed with PBS and the colonies were stained with Coomassie brilliant blue G. The percentage of neo gene correction was calculated as the number of G418-resistant CFU per total CFU for each original well. On day 6, HPRT gene correction experiments were performed by adding 1× HAT (hypoxanthine-aminopterin-thymidine medium) to the experimental plates. On day 16, plates were washed with PBS and the colonies were stained with Coomassie brilliant blue G. The percentage of HPRT gene correction was calculated as the number of HAT-resistant CFU per total CFU for each original well.

[2] = tested on: HT-1080/neo/HPRT editing lines; test: HPRT gene editing (HAT selection) after shRNA inhibition of selected replication fork proteins; type: cell-based, human; settings: shRNA induced 24 hours with doxycycline (1 μg/ml); AAV-HPe3 MOI 2×10^4
Method: as §1, §2, §3, §4

B1: SH61: shRNA cloned in pTRIPZ (Dharmacon), target gene BLM; SEQ ID NO: 110 (nucleic acid)
chain: GTTGACAGTGAGCGAAACCTTCCTATGATATTGATATAGTGAAGCCACAGATGTATATCAATATCATAGGAAGGTTGTGCCTACTGCCTC
[1]
  G418 (neo) gene editing frequency normalized to a cell not treated with a shRNA: 2.64
[2]
  HAT (HPRT) gene editing frequency normalized to a cell not treated with a shRNA: 2.82

B2: SH63: shRNA cloned in pTRIPZ (Dharmacon), target gene BLM; SEQ ID NO: 112 (nucleic acid)
chain: GTTGACAGTGAGCGAAGGTTATCTGTGCTACAATTGTAGTGAAGCCACAGATGTACAATTGTAGCACAGATAACCTGTGCCTACTGCCTC
[1]
  G418 (neo) gene editing frequency normalized to a cell not treated with a shRNA: 1.99
[2]
  HAT (HPRT) gene editing frequency normalized to a cell not treated with a shRNA: 0.92

B3: sh15: shRNA cloned in pTRIPZ (Dharmacon), target gene 2b3, pms2; SEQ ID NO: 103 (nucleic acid)
chain: GTTGACAGTGAGCGCCCGTAGTCACTGTATGGAATATAGTGAAGCCACAGATGTATATTCCATACAGTGACTACGGTTGCCTACTGCCTC
[1]
  G418 (neo) gene editing frequency normalized to a cell not treated with a shRNA: 3.88
[2]
  HAT (HPRT) gene editing frequency normalized to a cell not treated with a shRNA: 17.59

B4: SH79: shRNA cloned in pTRIPZ (Dharmacon), target gene POLA1; SEQ ID NO: 113 (nucleic acid)
chain: GTTGACAGTGAGCGCGCAGATCATGTGTGAGCTAAATAGTGAAGCCACAGATGTATTTAGCTCACACATGATCTGCATGCCTACTGCCTC
modifications: listed as DNA, chemistry not fully specified
[1]
  G418 (neo) gene editing frequency normalized to a cell not treated with a shRNA: 1.24
[2]
  HAT (HPRT) gene editing frequency normalized to a cell not treated with a shRNA: 2.46

B5: SH62: shRNA cloned in pTRIPZ (Dharmacon), target gene BLM; SEQ ID NO: 111 (nucleic acid)
chain: GTTGACAGTGAGCGCGGTGTCCATTACTTCAATATTTAGTGAAGCCACAGATGTAAATATTGAAGTAATGGACACCATGCCTACTGCCTC
[1]
  G418 (neo) gene editing frequency normalized to a cell not treated with a shRNA: 2.28
[2]
  HAT (HPRT) gene editing frequency normalized to a cell not treated with a shRNA: 2.34

B6: SH7: shRNA cloned in pTRIPZ (Dharmacon), target gene 1B3, POLE4; SEQ ID NO: 101 (nucleic acid)
chain: GTTGACAGTGAGCGCGGAGAGACTTGGATAATGCAATAGTGAAGCCACAGATGTATTGCATTATCCAAGTCTCTCCTTGCCTACTGCCTC
[1]
  G418 (neo) gene editing frequency normalized to a cell not treated with a shRNA: 1.57
[2]
  HAT (HPRT) gene editing frequency normalized to a cell not treated with a shRNA: 8.24

B7: Sh39: shRNA cloned in pTRIPZ (Dharmacon), target gene BLM; SEQ ID NO: 104 (nucleic acid)
chain: GTTGACAGTGAGCGTAAGCAGCGATGTGATTTGCATTAGTGAAGCCACAGATGTAATGCAAATCACATCGCTGCTTATGCCTACTGCCTC
[1]
  G418 (neo) gene editing frequency normalized to a cell not treated with a shRNA: 1.67
[2]
  HAT (HPRT) gene editing frequency normalized to a cell not treated with a shRNA: 3.8

B8: Sh41: shRNA cloned in pTRIPZ (Dharmacon), target gene Topo III alpha; SEQ ID NO: 106 (nucleic acid)
chain: GTTGACAGTGAGCGTGGACATTTACTGGCTCATGATTAGTGAAGCCACAGATGTAATCATGAGCCAGTAAATGTCCATGCCTACTGCCTC
[1]
  G418 (neo) gene editing frequency normalized to a cell not treated with a shRNA: 1.42
[2]
  HAT (HPRT) gene editing frequency normalized to a cell not treated with a shRNA: 1.66

B9: SH56: shRNA cloned in pTRIPZ (Dharmacon), target gene 12B12, ORC1L; SEQ ID NO: 108 (nucleic acid)
chain: GTTGACAGTGAGCGCGCCACGTTTCAACAGATATATTAGTGAAGCCACAGATGTAATATATCTGTTGAAACGTGGCTTGCCTACTGCCTC
[1]
  G418 (neo) gene editing frequency normalized to a cell not treated with a shRNA: 2.07
[2]
  HAT (HPRT) gene editing frequency normalized to a cell not treated with a shRNA: 2.11

B10: SH9: shRNA cloned in pTRIPZ (Dharmacon), target gene 1B5, anapc5; SEQ ID NO: 102 (nucleic acid)
chain: GTTGACAGTGAGCGCGCGCATTATCTCAGCTACTTATAGTGAAGCCACAGATGTATAAGTAGCTGAGATAATGCGCTTGCCTACTGCCTC
[1]
  G418 (neo) gene editing frequency normalized to a cell not treated with a shRNA: 2.81
[2]
  HAT (HPRT) gene editing frequency normalized to a cell not treated with a shRNA: 29.10

B11: SH60: shRNA cloned in pTRIPZ (Dharmacon), target gene BLM; SEQ ID NO: 109 (nucleic acid)
chain: GTTGACAGTGAGCGCGGAGTCTGCGTGCGAGGATTATAGTGAAGCCACAGATGTATAATCCTCGCACGCAGACTCCTTGCCTACTGCCTC
[1]
  G418 (neo) gene editing frequency normalized to a cell not treated with a shRNA: 2.08
[2]
  HAT (HPRT) gene editing frequency normalized to a cell not treated with a shRNA: 1.38

B12: Sh42: shRNA cloned in pTRIPZ (Dharmacon), target gene 12A5, MEIS2; SEQ ID NO: 107 (nucleic acid)
chain: GTTGACAGTGAGCGCGGACTTTATCAGAAACTCAAATAGTGAAGCCACAGATGTATTTGAGTTTCTGATAAAGTCCTTGCCTACTGCCTC
[1]
  G418 (neo) gene editing frequency normalized to a cell not treated with a shRNA: 1.26

— patent US20220106596A1, “A METHOD OF GENE EDITING” (University of Washington, priority 2019, published 2022)
